In this data set the target is dimeric human Tie2 extracellular domain (ECD)-human IgG fusion protein (UniProt Q02763).
Chain of dimeric human Tie2 extracellular domain (ECD)-human IgG fusion protein (Q02763 23-748): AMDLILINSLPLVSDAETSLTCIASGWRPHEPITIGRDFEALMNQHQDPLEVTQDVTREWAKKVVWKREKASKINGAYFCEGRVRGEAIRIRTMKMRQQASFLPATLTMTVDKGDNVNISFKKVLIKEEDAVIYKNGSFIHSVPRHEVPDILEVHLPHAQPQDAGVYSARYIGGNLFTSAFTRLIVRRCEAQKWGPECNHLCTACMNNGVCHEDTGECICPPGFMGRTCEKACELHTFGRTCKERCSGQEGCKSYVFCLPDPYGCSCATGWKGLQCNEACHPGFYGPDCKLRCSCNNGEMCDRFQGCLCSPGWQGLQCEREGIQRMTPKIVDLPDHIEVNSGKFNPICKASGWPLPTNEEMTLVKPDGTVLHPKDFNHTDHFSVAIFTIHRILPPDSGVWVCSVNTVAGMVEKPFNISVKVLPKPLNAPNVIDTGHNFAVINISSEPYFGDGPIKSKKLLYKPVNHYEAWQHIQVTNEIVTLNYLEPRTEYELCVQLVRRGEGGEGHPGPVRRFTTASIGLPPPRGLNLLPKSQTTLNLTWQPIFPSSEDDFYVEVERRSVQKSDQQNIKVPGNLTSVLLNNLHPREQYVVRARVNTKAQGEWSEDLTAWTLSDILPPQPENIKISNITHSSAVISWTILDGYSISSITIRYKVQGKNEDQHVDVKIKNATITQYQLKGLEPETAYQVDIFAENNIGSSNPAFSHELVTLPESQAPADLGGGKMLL

As for Recombinant human MMP-14, the “cleavage of hTie2-ECD (reducing SDS-PAGE, 30° C., 16 hours)” value is “co-incubation of MMP-14 and human Tie2 resulted in significant reduction of intact hTie2-ECD, with the appearance of shorter, cleaved fragments”.

The record behind these values is patent US20230287109.
